According to paper PMC13355314 (2026):
One block for each binder: values may come before it.

How the values were obtained:
BRD4 BD1 BD1 = BRD4 BD1 BD1 (Homo sapiens, UniProt O60885, ZZ1-SO2H)
[1] = molecular target: biotinylated YPEL5–WDR26^ΔCTLH complex (AviTag on WDR26^ΔCTLH) (UniProt Q9H7D7 1-661; P62699 1-121, biotin on the C-terminal AviTag (BirA)); experiment: BLI

- Kd (BRD4 BD1 BD1): ~12 nM
B1: YPEL5 (protein)
chain: MGRIFLDHIGGTRLFSCANCDTILTNRSELISTRFTGATGRAFLFNKVVNLQYSEVQDRVMLTGRHMVRDVSCKNCNSKLGWIYEFATEDSQRYKEGRVILERALVRESEGFEEHVPSDNS

- Kd [1]: 23.2 nM
B2: BD1 domain of BRD3 (domain or fragment)
chain: not shown

- Kd [1]: 16.4 nM
B3: BD1 domain of BRD2 (domain or fragment)
chain: not shown
